# Measurements published in PMC2114528.
# Read-outs that look alike come from different tables or passages of the source.
# Columns and labels:
# [1] = molecular target: ECGF receptor (Mr 150,000 polypeptide) on LEII cells (mouse (endogenous in LEII cells)) (UniProt P16092); test: radioligand binding
# [2] = molecular target: ECGF receptor (Mr 150,000 polypeptide) on LEII cells (mouse (endogenous in LEII cells)) (UniProt P16092); test: radioligand binding; remark: listed apart in the source
# Chain of UniProt P16092 (P16092 22-822): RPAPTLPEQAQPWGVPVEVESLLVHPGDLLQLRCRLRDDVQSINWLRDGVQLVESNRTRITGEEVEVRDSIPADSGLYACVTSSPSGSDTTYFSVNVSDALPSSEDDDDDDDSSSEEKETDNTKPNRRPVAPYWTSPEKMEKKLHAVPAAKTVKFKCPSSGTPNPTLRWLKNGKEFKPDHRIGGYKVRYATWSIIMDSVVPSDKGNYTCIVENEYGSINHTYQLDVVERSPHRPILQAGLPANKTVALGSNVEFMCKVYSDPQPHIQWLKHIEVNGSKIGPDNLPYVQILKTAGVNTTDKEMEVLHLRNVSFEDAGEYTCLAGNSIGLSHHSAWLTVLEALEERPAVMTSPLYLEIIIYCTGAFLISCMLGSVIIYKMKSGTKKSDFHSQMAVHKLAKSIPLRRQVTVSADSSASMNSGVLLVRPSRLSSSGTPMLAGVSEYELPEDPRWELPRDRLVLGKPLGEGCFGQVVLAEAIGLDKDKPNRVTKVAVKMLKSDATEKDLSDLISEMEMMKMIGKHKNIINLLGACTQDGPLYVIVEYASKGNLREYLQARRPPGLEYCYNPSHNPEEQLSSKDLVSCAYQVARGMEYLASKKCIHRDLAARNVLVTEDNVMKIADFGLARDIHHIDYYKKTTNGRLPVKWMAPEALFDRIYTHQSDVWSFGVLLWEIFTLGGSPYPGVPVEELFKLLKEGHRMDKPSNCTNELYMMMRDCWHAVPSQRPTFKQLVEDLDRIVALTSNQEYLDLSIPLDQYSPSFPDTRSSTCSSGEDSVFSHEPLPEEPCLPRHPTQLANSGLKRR
substance,measurement,setting,value
alpha-endothelial cell growth factor (ligand),Kd,[1],0.2 nM
same,Kd,[2],0.25 nM
